The text below walks through data of publication PMC7104408 (Proceedings of the National Academy of Sciences of the …, 2019).

Like-named read-outs stand apart in the source and are kept apart here.

The target of one series is T1, LUXMYB R146A (UniProt Q9SNB4 139-200, R146A).
T1 sequence: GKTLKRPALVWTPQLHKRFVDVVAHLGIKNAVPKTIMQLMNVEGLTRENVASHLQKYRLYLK
As to the kind of experiment: EMSA.

For a further series, the target named is T2, LUXFL (UniProt Q9SNB4 1-323).
T2 sequence: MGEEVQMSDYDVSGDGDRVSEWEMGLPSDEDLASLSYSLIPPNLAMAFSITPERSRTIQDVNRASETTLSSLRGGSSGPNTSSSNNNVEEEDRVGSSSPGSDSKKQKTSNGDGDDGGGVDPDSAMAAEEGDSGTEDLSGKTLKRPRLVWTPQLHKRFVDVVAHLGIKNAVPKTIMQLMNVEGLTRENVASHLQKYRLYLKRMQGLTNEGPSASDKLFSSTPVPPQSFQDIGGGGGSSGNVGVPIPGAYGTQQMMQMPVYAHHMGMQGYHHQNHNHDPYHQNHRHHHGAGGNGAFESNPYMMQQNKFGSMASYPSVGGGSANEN
As to the kind of experiment: EMSA. In general terms: In EMSA bound probe runs differently from free probe, usually more slowly.

Series [1] addresses T3, LUXMYB (UniProt Q9SNB4 139-200).
T3 sequence: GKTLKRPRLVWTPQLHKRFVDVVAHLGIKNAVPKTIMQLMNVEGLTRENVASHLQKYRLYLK
As to the kind of experiment: EMSA.

The target of another series is T4, LUXFL;ELF3;ELF4 (Arabidopsis thaliana?;Arabidopsis …, UniProt Q9SNB4;O82804;O04211 1-323;1-695;1-111, ||).
T4 sequence 1: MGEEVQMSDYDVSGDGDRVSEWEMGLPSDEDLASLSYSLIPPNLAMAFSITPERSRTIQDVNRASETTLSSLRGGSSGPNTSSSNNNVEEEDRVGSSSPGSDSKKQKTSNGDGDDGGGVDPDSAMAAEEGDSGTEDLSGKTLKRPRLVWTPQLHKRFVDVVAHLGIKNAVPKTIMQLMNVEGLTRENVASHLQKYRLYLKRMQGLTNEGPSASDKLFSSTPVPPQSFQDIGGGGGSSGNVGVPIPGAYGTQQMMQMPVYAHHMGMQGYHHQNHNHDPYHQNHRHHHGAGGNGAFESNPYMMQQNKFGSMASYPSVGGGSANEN
T4 sequence 2: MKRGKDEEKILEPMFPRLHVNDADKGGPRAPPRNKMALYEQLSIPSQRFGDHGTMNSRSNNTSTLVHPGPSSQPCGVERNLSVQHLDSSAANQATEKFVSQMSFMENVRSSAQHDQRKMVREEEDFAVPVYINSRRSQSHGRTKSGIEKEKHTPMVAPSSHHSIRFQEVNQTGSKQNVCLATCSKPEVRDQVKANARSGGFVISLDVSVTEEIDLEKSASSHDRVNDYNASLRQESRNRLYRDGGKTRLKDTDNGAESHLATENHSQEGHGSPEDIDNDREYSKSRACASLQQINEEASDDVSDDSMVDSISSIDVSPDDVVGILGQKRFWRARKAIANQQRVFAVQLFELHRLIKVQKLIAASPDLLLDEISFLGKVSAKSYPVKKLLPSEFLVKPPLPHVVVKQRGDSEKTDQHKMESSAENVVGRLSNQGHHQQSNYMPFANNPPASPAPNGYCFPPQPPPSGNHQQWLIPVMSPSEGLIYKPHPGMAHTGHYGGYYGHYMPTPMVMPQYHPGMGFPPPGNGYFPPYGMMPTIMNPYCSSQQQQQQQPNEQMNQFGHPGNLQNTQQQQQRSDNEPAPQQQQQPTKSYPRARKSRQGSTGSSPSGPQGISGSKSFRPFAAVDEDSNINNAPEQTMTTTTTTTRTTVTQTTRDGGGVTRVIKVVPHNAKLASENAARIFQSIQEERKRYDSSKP
T4 sequence 3: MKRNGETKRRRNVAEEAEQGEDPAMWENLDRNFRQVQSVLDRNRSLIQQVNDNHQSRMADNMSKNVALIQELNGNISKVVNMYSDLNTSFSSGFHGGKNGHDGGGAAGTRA
The series is described as follows: EMSA.

Another series concerns the target T5, LUXFL R146A (UniProt Q9SNB4 1-323, R146A).
T5 sequence: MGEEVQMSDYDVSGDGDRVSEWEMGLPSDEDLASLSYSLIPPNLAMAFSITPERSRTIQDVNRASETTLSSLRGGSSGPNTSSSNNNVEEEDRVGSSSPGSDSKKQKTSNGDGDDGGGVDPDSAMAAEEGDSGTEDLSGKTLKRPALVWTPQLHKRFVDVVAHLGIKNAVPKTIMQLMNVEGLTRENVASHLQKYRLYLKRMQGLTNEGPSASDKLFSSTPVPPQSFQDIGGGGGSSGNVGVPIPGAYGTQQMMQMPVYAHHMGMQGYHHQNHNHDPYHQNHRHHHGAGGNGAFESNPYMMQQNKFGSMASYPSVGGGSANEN
The series is described as follows: EMSA.

The target of another series is T6, ELF4 (UniProt O04211 1-111).
T6 sequence: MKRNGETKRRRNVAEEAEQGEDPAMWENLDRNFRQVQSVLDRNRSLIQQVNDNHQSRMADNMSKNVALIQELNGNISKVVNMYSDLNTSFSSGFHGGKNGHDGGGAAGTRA
The series is described as follows: EMSA.

Another series has as its target T7, ELF3 (UniProt O82804 1-695).
T7 sequence: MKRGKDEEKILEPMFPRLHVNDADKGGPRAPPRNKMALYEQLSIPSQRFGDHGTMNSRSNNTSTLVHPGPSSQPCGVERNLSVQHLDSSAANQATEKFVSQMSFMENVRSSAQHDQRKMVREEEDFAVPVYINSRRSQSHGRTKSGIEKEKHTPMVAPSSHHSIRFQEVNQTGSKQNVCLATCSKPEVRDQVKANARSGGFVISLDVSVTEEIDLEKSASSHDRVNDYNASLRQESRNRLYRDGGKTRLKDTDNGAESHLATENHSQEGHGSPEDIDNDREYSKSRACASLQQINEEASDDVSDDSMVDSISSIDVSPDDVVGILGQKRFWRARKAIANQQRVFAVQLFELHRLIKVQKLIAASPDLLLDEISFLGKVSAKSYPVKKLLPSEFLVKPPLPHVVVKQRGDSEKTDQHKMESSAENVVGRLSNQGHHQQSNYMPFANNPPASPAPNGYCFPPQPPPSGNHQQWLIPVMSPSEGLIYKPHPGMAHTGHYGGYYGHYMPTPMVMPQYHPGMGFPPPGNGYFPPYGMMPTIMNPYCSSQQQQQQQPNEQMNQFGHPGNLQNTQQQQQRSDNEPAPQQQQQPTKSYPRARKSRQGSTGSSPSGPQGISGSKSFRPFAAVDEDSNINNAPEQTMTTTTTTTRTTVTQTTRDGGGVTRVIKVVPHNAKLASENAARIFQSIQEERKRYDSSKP
As to the kind of experiment: EMSA.

Series [2] has as its target T3, LUXMYB. As to the kind of experiment: crystal structure.
Series [3] addresses T3, LUXMYB. As to the kind of experiment: crystal structure. The source holds these as a separate data set.
The target of series [4] is T8, EARLY FLOWERING 3, full-length (Arabidopsis, UniProt O82804 1-695).
T8 sequence: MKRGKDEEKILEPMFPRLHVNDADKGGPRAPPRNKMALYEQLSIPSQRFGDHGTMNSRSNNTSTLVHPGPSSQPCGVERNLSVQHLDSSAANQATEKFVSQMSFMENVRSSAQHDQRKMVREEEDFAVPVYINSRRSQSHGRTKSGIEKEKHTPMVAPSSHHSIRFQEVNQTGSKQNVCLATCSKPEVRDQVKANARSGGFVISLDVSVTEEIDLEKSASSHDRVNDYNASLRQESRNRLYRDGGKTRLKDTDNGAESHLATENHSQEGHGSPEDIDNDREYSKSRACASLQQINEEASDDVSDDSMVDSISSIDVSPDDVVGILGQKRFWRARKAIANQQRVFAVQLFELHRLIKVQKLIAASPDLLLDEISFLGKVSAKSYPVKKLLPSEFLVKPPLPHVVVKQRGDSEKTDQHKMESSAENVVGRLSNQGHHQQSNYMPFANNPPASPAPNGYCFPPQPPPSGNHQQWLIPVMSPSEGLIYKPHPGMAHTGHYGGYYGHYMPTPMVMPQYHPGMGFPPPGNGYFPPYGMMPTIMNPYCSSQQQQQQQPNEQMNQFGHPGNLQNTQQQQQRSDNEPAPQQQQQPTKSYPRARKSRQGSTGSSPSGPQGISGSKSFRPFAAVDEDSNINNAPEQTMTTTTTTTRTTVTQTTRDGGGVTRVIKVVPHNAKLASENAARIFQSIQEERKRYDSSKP
The series is described as follows: native gel or EMSA.

B1: Oligo 5 (ATATTCGA) (dsDNA)
DNA 1: ATGATGTCTTCTCGAATATTCGATAAAAATGGTGTTG
DNA 2: CAACACCATTTTTATCGAATATTCGAGAAGACATCAT
Broadly, the Kd is a measure of binding affinity in units of concentration. Read a low Kd as higher affinity. Consider B1, for which the values for the Kd with LUXMYB R146A, with LUXFL and with LUXMYB [1] were 137 ± 13 nM, 178 ± 3.5 nM and 43 ± 4.2 nM, respectively.

B2: Oligo 1 (PRR9 36 bp) (dsDNA)
DNA 1: ATGATGTCTTCTCAAGATTCGATAAAAATGGTGTTG
DNA 2: CAACACCATTTTTATCGAATCTTGAGAAGACATCAT
Take B2: the binding result with LUXFL;ELF3;ELF4 is listed as “binds”; with ELF4 it was “no binding”; in the series with ELF3 it was “no binding”. For the same molecule, the Kd in the series with LUXMYB R146A was 50 ± 2.4 nM; with LUXFL, 93 ± 5.8 nM; with LUXFL R146A, 105 ± 11.8 nM; with LUXMYB [1] it was 37 ± 2.9 nM.

B3: Oligo 2 (AGATACGC) (dsDNA)
DNA 1: ATGATGTCTTCTCAAGATACGCTAAAAATGGTGTTG
DNA 2: CAACACCATTTTTAGCGTATCTTGAGAAGACATCAT
With B3, the Kd with LUXMYB R146A amounted to 50 ± 1.8 nM; in the series with LUXFL, 98 ± 2.9 nM; with LUXFL R146A, 336 ± 4.8 nM; in the series with LUXMYB [1], 6.5 ± 1.4 nM.

B4: Oligo 3 (AAGATCTT) (dsDNA)
DNA 1: ATGATGTCTTCTCAAGATCTTATAAAAATGGTGTTG
DNA 2: CAACACCATTTTTATAAGATCTTGAGAAGACATCAT
Turning to B4, the Kd came out at 63 ± 3.1 nM with LUXMYB R146A, 93 ± 3.5 nM with LUXFL, 204 ± 6.7 nM with LUXFL R146A and 14 ± 1.8 nM with LUXMYB [1].

B5: crystal 10-mer AGATACGC (dsDNA)
DNA 1: TAGATACGCA
DNA 2: ATGCGTATCT
Turning to B5, the binding result with LUXMYB [2] was “binds”.

B6: Oligo 4 (GGATCCGA) (dsDNA)
DNA 1: ATGATGTCTTCTCGGATCCGATAAAAATGGTGTTG
DNA 2: CAACACCATTTTTATCGGATCCGAGAAGACATCAT
On to B6, for which the dissociation constant (Kd) was 120 ± 1 nM with LUXMYB R146A, 118 ± 10.6 nM in the series with LUXFL, 164 ± 4.2 nM with LUXFL R146A and 17 ± 2.1 nM in the series with LUXMYB [1].

B7: crystal 10-mer ATATTCGA (dsDNA)
DNA 1: TATATTCGAA
DNA 2: ATTCGAATAT
Consider B7, for which the binding result with LUXMYB [3] is reported as “binds”.

B8: EARLY FLOWERING 4 (natural protein)
chain: MKRNGETKRRRNVAEEAEQGEDPAMWENLDRNFRQVQSVLDRNRSLIQQVNDNHQSRMADNMSKNVALIQELNGNISKVVNMYSDLNTSFSSGFHGGKNGHDGGGAAGTRA
On to B8, for which the binding result in [4] is “binds”.
